Source: patent US20250002594A1 (SHANGHAI EPIMAB BIOTHERAPEUTICS, published 2025)

T1: recombinant human CD122 (human, UniProt P14784 27-239, limits assumed)
T1 construct: also called IL-2Rβ
T1 sequence (looked up): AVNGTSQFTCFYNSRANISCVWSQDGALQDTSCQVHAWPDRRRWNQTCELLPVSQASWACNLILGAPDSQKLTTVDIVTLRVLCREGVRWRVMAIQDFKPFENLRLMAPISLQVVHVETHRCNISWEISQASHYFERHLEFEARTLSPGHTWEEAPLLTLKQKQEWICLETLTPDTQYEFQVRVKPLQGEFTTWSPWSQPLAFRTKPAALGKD

T2: CD122/CD132 complex on HEK-Blue IL-2 cells (UniProt P14784 27-551; P31785 23-369, limits assumed)
T2 sequence (looked up) 1: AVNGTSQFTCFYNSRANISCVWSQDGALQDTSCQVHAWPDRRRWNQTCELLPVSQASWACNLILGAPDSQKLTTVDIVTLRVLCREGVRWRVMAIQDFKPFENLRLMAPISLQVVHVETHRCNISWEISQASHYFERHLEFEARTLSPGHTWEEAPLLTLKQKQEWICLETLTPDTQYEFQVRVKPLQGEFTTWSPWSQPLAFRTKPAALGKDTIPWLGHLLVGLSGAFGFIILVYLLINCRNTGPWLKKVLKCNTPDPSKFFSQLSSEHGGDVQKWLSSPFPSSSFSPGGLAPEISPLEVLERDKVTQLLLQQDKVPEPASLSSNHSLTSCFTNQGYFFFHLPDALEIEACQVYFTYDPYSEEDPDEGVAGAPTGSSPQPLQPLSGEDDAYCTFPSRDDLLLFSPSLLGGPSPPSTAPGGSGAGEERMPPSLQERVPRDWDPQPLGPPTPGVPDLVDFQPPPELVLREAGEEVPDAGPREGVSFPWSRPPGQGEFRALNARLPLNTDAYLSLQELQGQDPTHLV
T2 sequence (looked up) 2: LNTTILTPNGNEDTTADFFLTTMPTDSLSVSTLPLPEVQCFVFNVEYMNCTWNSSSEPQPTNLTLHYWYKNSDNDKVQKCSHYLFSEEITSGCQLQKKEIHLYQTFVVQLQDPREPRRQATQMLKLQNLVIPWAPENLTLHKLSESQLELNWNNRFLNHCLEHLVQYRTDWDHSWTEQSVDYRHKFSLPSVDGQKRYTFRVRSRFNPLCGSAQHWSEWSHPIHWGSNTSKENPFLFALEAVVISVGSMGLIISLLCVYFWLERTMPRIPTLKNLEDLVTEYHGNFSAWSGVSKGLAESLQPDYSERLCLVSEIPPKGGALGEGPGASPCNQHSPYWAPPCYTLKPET

T3: recombinant human CD132 (human, UniProt P31785 23-262, limits assumed)
T3 construct: also called IL-2Rγ
T3 sequence (looked up): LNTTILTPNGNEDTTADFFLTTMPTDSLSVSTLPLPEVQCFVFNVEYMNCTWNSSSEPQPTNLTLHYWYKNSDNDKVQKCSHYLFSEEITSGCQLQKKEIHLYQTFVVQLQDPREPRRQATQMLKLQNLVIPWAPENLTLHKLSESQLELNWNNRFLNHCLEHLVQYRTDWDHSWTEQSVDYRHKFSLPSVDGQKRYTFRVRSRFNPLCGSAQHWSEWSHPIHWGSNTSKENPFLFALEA

T4: recombinant cyno CD122 (cynomolgus, UniProt Q38J85 27-239, limits assumed)
T4 construct: also called cynomolgus CD122
T4 sequence (looked up): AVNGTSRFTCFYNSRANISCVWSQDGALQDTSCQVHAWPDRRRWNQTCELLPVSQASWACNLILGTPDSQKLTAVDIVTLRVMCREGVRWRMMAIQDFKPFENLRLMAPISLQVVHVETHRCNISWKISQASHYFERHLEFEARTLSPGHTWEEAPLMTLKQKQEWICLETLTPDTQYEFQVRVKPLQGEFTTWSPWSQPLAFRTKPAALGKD

T5: recombinant cyno CD132 (cynomolgus, UniProt A0A2K5VGJ6 23-262)
T5 construct: also called cynomolgus CD132
T5 sequence: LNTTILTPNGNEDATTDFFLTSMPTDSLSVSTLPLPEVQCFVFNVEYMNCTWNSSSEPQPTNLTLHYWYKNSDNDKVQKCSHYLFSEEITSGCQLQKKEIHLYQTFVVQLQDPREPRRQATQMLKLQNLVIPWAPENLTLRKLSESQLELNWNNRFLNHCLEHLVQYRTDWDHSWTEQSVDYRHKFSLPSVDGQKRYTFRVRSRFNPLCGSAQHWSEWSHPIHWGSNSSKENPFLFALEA

T6: human CD122 on HEK293 cells (human, UniProt P14784 27-551)
T6 construct: whole, on cells; also called cell surface CD122
T6 sequence (looked up): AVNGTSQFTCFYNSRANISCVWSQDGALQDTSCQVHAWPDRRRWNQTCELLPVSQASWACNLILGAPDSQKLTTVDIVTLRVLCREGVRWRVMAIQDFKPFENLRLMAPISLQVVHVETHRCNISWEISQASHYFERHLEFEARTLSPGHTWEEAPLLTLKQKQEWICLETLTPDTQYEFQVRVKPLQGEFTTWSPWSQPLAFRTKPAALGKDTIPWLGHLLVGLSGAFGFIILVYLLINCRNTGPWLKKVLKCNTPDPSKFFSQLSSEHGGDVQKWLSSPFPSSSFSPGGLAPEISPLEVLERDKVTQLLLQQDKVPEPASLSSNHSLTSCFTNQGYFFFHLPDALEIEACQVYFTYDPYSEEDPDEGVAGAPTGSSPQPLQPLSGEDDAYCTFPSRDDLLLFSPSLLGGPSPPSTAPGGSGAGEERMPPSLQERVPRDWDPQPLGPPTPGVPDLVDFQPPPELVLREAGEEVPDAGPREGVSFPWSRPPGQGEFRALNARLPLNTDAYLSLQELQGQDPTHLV

T7: human CD132 on HEK293 cells (human, UniProt P31785 23-369)
T7 construct: whole, on cells; also called cell surface CD132
T7 sequence (looked up): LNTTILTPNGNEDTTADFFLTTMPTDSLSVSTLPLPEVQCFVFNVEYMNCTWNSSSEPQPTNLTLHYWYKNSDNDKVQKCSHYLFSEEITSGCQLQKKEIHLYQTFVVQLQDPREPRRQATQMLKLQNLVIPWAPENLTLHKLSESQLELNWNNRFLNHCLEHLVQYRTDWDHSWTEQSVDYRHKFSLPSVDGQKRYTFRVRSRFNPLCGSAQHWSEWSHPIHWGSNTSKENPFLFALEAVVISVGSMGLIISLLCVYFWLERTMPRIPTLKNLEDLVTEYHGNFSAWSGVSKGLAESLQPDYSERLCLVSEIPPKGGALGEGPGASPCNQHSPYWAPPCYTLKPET


Assays:
recombinant human CD122 [1] = biological target: T1, recombinant human CD122; experiment: hybridoma supernatant screening, method not described
[2] = biological target: T2, CD122/CD132 complex on HEK-Blue IL-2 …; experiment: cell-based or functional assay
recombinant human CD122 [3] = biological target: T1, recombinant human CD122; experiment: GCI (WAVEsystem), FIT-Ig captured by anti-human IgG Fc, antigen in solution
Method: (§1) Binding affinity and kinetics constants of humanized CD122/CD132 FIT-Ig were determined using a label-free biosensor on WAVEsystem (Creoptix AG, Switzerland) by grating-coupled interferometry (GCI). Briefly, a PCP WAVEchip (Creoptix AG) was pre-immobilized with goat anti-human IgG Fc antibody to a density of 3830 pg/mm² by amine coupling, and used to capture humanized CD122/CD132 FIT-Ig generated from Example 3.2.1 to a density of ˜90 pg/mm², then exposed to recombinant human/cyno CD122 or CD132 serially diluted (3× dilutions from 200 nM to […] for human CD122, human CD132 and cyno CD132, respectively; and from 1000 nM to 1.37 nM for cyno CD122) in 1X HBS-EP+ buffer (Cytiva, Cat No. BR100669) by injection at 60 μL/min for 250s to assess association, followed by 1200s dissociation. After each round of association and dissociation, WAVEchip surface was regenerated by subject to pH 1.5 Glycine-HCl buffer injection at 60 μL/min for 120s. Sensorgrams were recorded at 25° C., the data were analyzed on WAVEcontrol (Creoptix AG) and double referenced by subtracting the signals from blank injections and the reference channel. A Langmuir 1:1 model was used for data fitting.

recombinant human CD132 = biological target: T3, recombinant human CD132; experiment: as above
Method: as §1

recombinant cyno CD122 = biological target: T4, recombinant cyno CD122; experiment: as above
Method: as §1

recombinant cyno CD132 = biological target: T5, recombinant cyno CD132; experiment: as above
Method: as §1

[4] = biological target: T6, human CD122 on HEK293 cells; experiment: Flow cytometry (Median-APC) on HEK293/CD122 cells; the box gives no unit, the axis is Ab conc.(nM)
Method: (§2) Briefly, a 96-well plate was seeded with 3×10⁵ cells each well, centrifuged at 400 g for 5 minutes and supernatants discarded, then added 100 μl of antibody (5× serial dilutions, 0.0064 to 100 nM) each well and gently mixed. After 60 minutes of incubation at 4° C., plates were washed several times to remove excess antibodies. Secondary fluorochrome-conjugated goat anti-human IgG antibody (Jackson Immunoresearch, Cat No. 109-606-098) was then added and incubated with cells at 4° C. for 20 minutes. After another round of centrifugation and washing, cells were resuspended in assay buffer (1X PBS containing 2% FBS) for reading on a flow-cytometer. Median Fluorescence Intensity (MFI) readouts were plotted against antibody concentration and analyzed with GraphPad Prism 6.0 software.

[5] = biological target: T7, human CD132 on HEK293 cells; experiment: Flow cytometry (Median-APC) on HEK293/CD132 cells; the box gives no unit, the axis is Ab conc.(nM); the curve has no upper plateau in the range shown
Method: as §2

Row | Binder | binding result (recombinant human CD122 [1]) | EC50 from SEAP reporter gene assay [2] [nM] | Kd (recombinant human CD122 [3]) [nM] | koff (recombinant human CD122 [3]) [s⁻¹] | kon (recombinant human CD122 [3]) [M⁻¹ s⁻¹] | Kd (recombinant human CD132) [nM] | koff (recombinant human CD132) [s⁻¹] | kon (recombinant human CD132) [M⁻¹ s⁻¹] | Kd (recombinant cyno CD122) [nM] | koff (recombinant cyno CD122) [s⁻¹] | kon (recombinant cyno CD122) [M⁻¹ s⁻¹] | Kd (recombinant cyno CD132) [nM] | koff (recombinant cyno CD132) [s⁻¹] | kon (recombinant cyno CD132) [M⁻¹ s⁻¹] | EC50 [4] [nM] | EC50 [5] [nM]
1 | CD122-mAb77 (antibody, V domains shown, Mouse hybridoma antibody; also called clone #CD122-mAb77) VH: QVQLQQSGPELVKPGASVKMSCKASGYRFSDYVISWVKQRSGQGLEWIGEIYPGDGNTYYNEMFKGRATLTADKSPNTAYMKLSSLTSEDSALYFCARGSYTYDNYAMDFWGQGTSVTVSS VL: DVLMTQTPLSLPVSLGDQASISCRSSQNIVHSNGNTYLEWYLQKPGQSPKLLIYKVSNRFSGVPDRFSGSGSGTDFTLKISRVEAEDLGLYYCFQGSHIPWTFGGGTKLEIK | binds |  |  |  |  |  |  |  |  |  |  |  |  |  |  | 
2 | huFIT2019-86b-51 (bispecific antibody, human IgG1, kappa, L234A L235A, also called huFIT2019-8b-51) chain 1: not shown chain 2: EVQLVQSGAEVKKPGASVKVSCKASGYTFTDYVISWVRQATGQGLEWMGEIYPGDAQTYYNEMFKGRVTMTRDTSISTAYMELSSLRSEDTAVYYCARGSYTYDNYAMDFWGQGTTVTVSSASTKGPSVFPLAPSSKSTSGGTAALGCLVKDYFPEPVTVSWNSGALTSGVHTFPAVLQSSGLYSLSSVVTVPSSSLGTQTYICNVNHKPSNTKVDKKVEPKSC chain 3: not shown |  | 0.19 | 17.1 | 0.00107 | 62700 | 9.02 | 0.000339 | 37500 | 91.6 | 0.00697 | 76100 | 10.6 | 0.000286 | 27000 | 5.27 | 17.8
